For experiment [1], the target named is HA tri-stalk protein (HA amino acids 403-474 of the pandemic strain A/Luxembourg/43/2009(H1N1)) (Influenza A virus A/Luxembourg/43/2009(H1N1)). As to the kind of experiment: SEC. In general terms: SEC sorts molecules by how far they enter the pores of the column.
The target is the same in experiment [2]. The experiment can be described thus: crystal structure.

As usually defined, the stoichiometry N is a count of units in the complex or per binding partner. Regarding “HA tri-stalk protein (HA amino acids 403-474 of the pandemic strain A/Luxembourg/43/2009(H1N1)) (domain or fragment)”, the stoichiometry N in experiment [1] and in experiment [2] was 3 each time.

(Values after publication PMC6160157.)
